The results in this text go back to US12258605B2, “Alkane oxidation by modified hydroxylases” (The California Institute of Technology, priority 2005, dated 2025).

The Km is the concentration of substrate that gives half-maximal velocity. What is called kcat is the number of substrate molecules converted per active site and unit of time at saturation.

Data set [1] in a line: Kinetic measurements (Michaelis-Menten): propane. The following applies: N.a. = not active. Type of data set: biochemical. How it is done:
Rate measurements. Initial rates of product formation were determined at 25° C. in 100 mM KPi pH 8.0 buffer using purified protein (100 nM) and a substrate concentration of 1.6 mM. In a 5 mL-vial, 20 μL of alkane solution (in ethanol) were dissolved in 400 μL KPi buffer, to which 500 μL enzyme solution at 100-200 nM was added. Reaction was initiated by adding 100 μL of 5 mM NADPH solution, followed by stirring at 300 rpm for 1 minute, and quenched by adding 200 μL chloroform and stirring at 800 rpm for 10 sec. Solutions were transferred to an Eppendorf tube, to which internal standard (10 μL 25 mM 1-bromohexane in ethanol) was added. Tubes were vortexed for 10 sec and centrifuged for 30 sec at 10,000 g. Organic phase was removed and analyzed by GC. For propane, reactions were carried out in a 5 mL-scale using 100-400 nM purified enzyme, propane-saturated buffer (propane concentration≈1.6 mM) and a final NADPH concentration of 500 μM. Reactions were stopped by addition of 200 μL H2SO4 conc. and analyzed by derivatization to alkyl nitrites followed by GC-ECD analysis as described below.
Kinetic measurements. […] Reactions were carried out in a 5 mL-scale using 100-400 nM purified enzyme and a final NADPH concentration of 1 mM. After 30 seconds, reactions were stopped by addition of 200 μL H2SO4 conc. and analyzed by GC as described below. Propane leakage during the experiment was neglected in reason of short measuring time. All measurements were performed in triplicate. Kinetic parameters were estimated from least-squares nonlinear regression to the Michaelis-Menten equation,
[formula] where v is the initial velocity, S is the substrate concentration, Vmax is the maximum velocity, and Km is the apparent Michaelis constant for the substrate.
Products from alkane reactions were identified and quantified by gas chromatography using authentic standards and calibration curves with internal standards. For the reactions with alkanes from pentane to decane, GC analyses were carried out using a Shimadzu GC-17A gas chromatograph, Agilent HP5 column (30 m×0.32 mm×0.1 μm film), 1 μL injection, FID detector, and the following separation program: 250° C. inlet, 250° C. detector, 50° C. oven for 3 min, 5° C./min gradient to 100° C., 25° C./min gradient to 230° C., and 230° C. for 3 min. For butane and propane (TTN) reactions, GC analyses were carried out using a Hewlett-Packard 5890 Series II Plus gas chromatograph, Supelco SPB-1 column (60 m×0.52 mm×0.5 μm film), 0.5 μL injection, FID detector, and the following separation program: 250° C. inlet, 275° C. detector, 80° C. oven for 2 min, 10° C./min gradient to 110° C., 25° C./min gradient to 275° C., and 275° C. for 2.5 min. […] Organic solutions were analyzed by FID-GC.

Data set [2] is described as follows: Background NADPH oxidation rate in screen (cell lysate, no substrate). Type of data set: biochemical. To be noted: relative to 35-E11. How it is done: Libraries of mutants of 35-E11 were screened for phenotypes indicative of either increased product formation on small gaseous substrates slightly larger than methane. Additionally, they were screened for increased coupling of the consumption of NADPH reducing equivalents to product formation. Product formation was determined by measuring total amount of dimethyl ether hydroxylation while increased coupling was determined primarily by decreased background NADPH consumption rates (measured spectrophotometrically at 340 nm in the absence of substrate).
The relative dimethyl ether (DME) activity was measured, 1 hour after treatment with Purpald, as the average net and absorbance at 550 nm from 8 microtitre plate DME reactions of the mutant compared to 8 equivalent reactions of 35-E11. All values were normalized by measuring the P450 concentration in each well with CO binding. “Asteriks” indicate criteria used to select mutants from libraries for further characterization. The oxidation rate is measured as absorbance change at 340 nm over 1 minute upon the addition of NADPH to 8 microtitre plate wells containing P450-containing cell lysate and compared to 8 equivalent reactions of 35-E11. All values were normalized by measuring the P450 concentration in each well with CO binding. The total turnover number (TTN) was measured as the absorbance at 550 nm of methane reactions with each mutant after treatment with alcohol oxidase and […]

B1: 35-E11: P450 BM-3 variant, SEQ ID NO:7: 53-5H substitutions plus E464G and I710T (protein)
chain: TIKEMPQPKTFGELKNLPLLNTDKPVQALMKIADELGEIFKFEAPGCVTRYLSSQRLIKEACDESRFDKNLSQALKFFRDFSGDGLFTSWTHEINWKKAHNILLPSFSQQAMKGYHAMMVDIAVQLVQKWERLNADEHIEVSEDMTRLTLDTIGLCGFNYRFNSFYRDQPHPFIISMVRALDEVMNKLQRANPDDPAYDENKRQCQEDIKVMNDLVDKIIADRKARGEQSDDLLTQMLNGKDPETGEPLDDGNISYQIITFLIAGHETTSGLLSFALYFLVKNPHVLQKVVEEAARVLVDPVPSYKQVKQLKYVGMVLNEALRLWPTFPAFSLYAKEDTVLGGEYPLEKGDEVMVLIPQLHRDKTIWGDDVEEFRPERFENPSAIPQHAFKPFGNGQRACIGQQFALHEATLVLGMMLKHFDFEDHTNYELDIKETLTLKPEGFVVKAKSKKIPLGGIPSPSTGQSAKKVRKKAENAHNTPLLVLYGSNMGTAEGTARDLADIAMSKGFAPQVATLDSHAGNLPREGAVLIVTASYNGHPPDNAKQFVDWLDQASADEVKGVRYSVFGCGDKNWATTYQKVPAFIDETLAAKGAENIADRGEADASDDFEGTYEEWREHMWSDVAAYFNLDIENSEDNKSTLSLQFVDSAADMPLAKMHGAFSTNVVASKELQQPGSARSTRHLEIELPKEASYQEGDHLGVIPRNYEGTVNRVTARFGLDASQQIRLEAEEEKLAHLPLAKTVSVEELLQYVELQDPVTRTQLRAMAAKTVCPPHKVELEALLEKQAYKEQVLAKRLTMLELLEKYPACEMKFSEFIALLPSIRPRYYSISSSPRVDEKQASITVSVVSGEAWSGYGEYKGIASNYLAELQEGDTITCFISTPQSEFTLPKDPETPLIMVGPGTGVAPFRGFVQARKQLKEQGQSLGEAHLYFGCRSPHEDYLYQEELENAQSEGIITLHTAFSRMPNQPKTYVQHVMEQDGKKLIELLDQGAHFYICGDGSQMAPAVEATLMKSYADVHQVSEADARLWLQQLEEKGRYAKDVWAG
modifications: mutant P450 35-E11 protein sequence
Consider B1, for which, in data set [1], the Michaelis-Menten constant (Km) came out at 820 ± 95 µM and the catalytic constant (kcat) came to 4.08 ± 0.417 s⁻¹. Also, the “Relative background NADPH oxidation rate” value in data set [2] turned out to be 1.

B2: P450PMO: P450 BM-3 variant, SEQ ID NO:125; 7-7 plus G443A and D698G; propane monooxygenase (protein)
chain: TIKEMPQPKTFGELKNLPLLNTDKPVQALMKIADELGEIFKFEAPGCVTRYISSQRLIKEACDESRFDKNLSQELKFFRDFGGDGLFTSWTHEINWKKAHNILLPSFSQQAMKGYHAMMVDIAVQLVQKWERLNADEHIEVSEDMTRLTLDTIGLCGFNYRFNSFYRDQPHPFIISMVRALDEVMNKPQRANPDDPAYDENKRQCQEDIKVMNDLVDKIIADRKARGEQSDDLLTQMLNGKDPETGEPLDDGNISYQIITFLIAGHETTSGLLSFALYFLVKNPHVLQKVVEEAARVLVDPVPSYKQVKQLKYVGMVLNEALRLWPTFPAFSLYAKEDTVLGGEYPLEKGDEVMVLIPQLHRDKTVWGDDVEEFRPERFENPSAIPQHAFKPFGNGQRACIGQQFALHEATLVLGMMLKHFDFEDHTNYELDIKETLTLKPEAFVVKAKSKKIPLGGIPSPSTGQSAKKVRKKAENAHNTPLLVLYGSNMGTAEGTARDLADIAMSKGFAPQVATLDSHAGNLPREGAVLIVTASYNGHPPDNAKQFVDWLDQASADEVKGVRYSVFGCGDKNWATTYQKVPAFIDETLAAKGAENIADRGEADASDDFEGTYEEWREHMWSDVAAYFNLDIENSEDNKSTLSLQFVDSAADMPLAKMHGAFSTNVVASKELQQPGSARSTRHLEIELPKEASYQEGGHLGVIPRNYEGTVNRVTARFGLDASQQIRLEAEEEKLAHLPLAKTVSVEELLQYVELQDPVTRTQLRAMAAKTVCPPHKVELEALLEKQAYKEQVLAKRLTMLELLEKYPACEMKFSEFIALLPSIRPRYYSISSSPRVDEKQASITVSVVSGEAWSGYGEYKGIASNYLAELQEGDTITCFISTPQSEFTLPKDPETPLIMVGPGTGVAPFRGFVQARKQLKEQGQSLGEAHLYFGCRSPHEDYLYQEELENAQSEGIITLHTAFSRMPNQPKTYVQHVMEQDGKKLIELLDQGAHFYICGDGSQMAPAVEATLMKSYADVHQVSEADARLWLQQLEEKGRYAKDVWAG
modifications: Mutant P450PMO protein sequence
notes: 7-7 plus G443A and D698G; propane monooxygenase
As for B2, in data set [1], the Km came to 170 µM and the kcat was 3.08 ± 0.583 s⁻¹.

B3: 20-D3: P450 BM-3 variant, SEQ ID NO:11; 35-E11 plus H285R (protein)
chain: TIKEMPQPKTFGELKNLPLLNTDKPVQALMKIADELGEIFKFEAPGCVTRYLSSQRLIKEACDESRFDKNLSQALKFFRDFSGDGLFTSWTHEINWKKAHNILLPSFSQQAMKGYHAMMVDIAVQLVQKWERLNADEHIEVSEDMTRLTLDTIGLCGFNYRFNSFYRDQPHPFIISMVRALDEVMNKLQRANPDDPAYDENKRQCQEDIKVMNDLVDKIIADRKARGEQSDDLLTQMLNGKDPETGEPLDDGNISYQIITFLIAGHETTSGLLSFALYFLVKNPRVLQKVVEEAARVLVDPVPSYKQVKQLKYVGMVLNEALRLWPTFPAFSLYAKEDTVLGGEYPLEKGDEVMVLIPQLHRDKTIWGDDVEEFRPERFENPSAIPQHAFKPFGNGQRACIGQQFALHEATLVLGMMLKHFDFEDHTNYELDIKETLTLKPEGFVVKAKSKKIPLGGIPSPSTGQSAKKVRKKAENAHNTPLLVLYGSNMGTAEGTARDLADIAMSKGFAPQVATLDSHAGNLPREGAVLIVTASYNGHPPDNAKQFVDWLDQASADEVKGVRYSVFGCGDKNWATTYQKVPAFIDETLAAKGAENIADRGEADASDDFEGTYEEWREHMWSDVAAYFNLDIENSEDNKSTLSLQFVDSAADMPLAKMHGAFSTNVVASKELQQPGSARSTRHLEIELPKEASYQEGDHLGVIPRNYEGTVNRVTARFGLDASQQIRLEAEEEKLAHLPLAKTVSVEELLQYVELQDPVTRTQLRAMAAKTVCPPHKVELEALLEKQAYKEQVLAKRLTMLELLEKYPACEMKFSEFIALLPSIRPRYYSISSSPRVDEKQASITVSVVSGEAWSGYGEYKGIASNYLAELQEGDTITCFISTPQSEFTLPKDPETPLIMVGPGTGVAPFRGFVQARKQLKEQGQSLGEAHLYFGCRSPHEDYLYQEELENAQSEGIITLHTAFSRMPNQPKTYVQHVMEQDGKKLIELLDQGAHFYICGDGSQMAPAVEATLMKSYADVHQVSEADARLWLQQLEEKGRYAKDVWAG
modifications: mutant P450 20-D3 protein sequence
notes: 35-E11 plus H285R
As for B3, the “Relative background NADPH oxidation rate” value in data set [2] turned out to be 1.6.
